Measurements: US20050287527A1, “Quantitative ranking of transient ligand binding to target biomolecules” (National Research Council of Canada, priority 2002, published 2005)
pKd: −log10 of the molar value.

Molecular target: Recombinant Cdc42 (residues 1-178) from Candida Albicans (Candida albicans) (UniProt P0CY33)
Assay: method not stated; the complexes give no response in relaxation dispersion

Chain of Recombinant Cdc42 (residues 1-178) from Candida Albicans (Candida albicans) (P0CY33 1-178 limits assumed): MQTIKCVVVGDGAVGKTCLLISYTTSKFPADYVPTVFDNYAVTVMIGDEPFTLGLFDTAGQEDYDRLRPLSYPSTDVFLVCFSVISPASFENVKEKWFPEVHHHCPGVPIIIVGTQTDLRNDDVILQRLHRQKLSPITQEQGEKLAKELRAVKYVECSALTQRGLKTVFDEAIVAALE

Substance	pKd
40-residue CRIB domain of Candida Ste20 (peptide)	9.30
40-residue CRIB domain of Candida Cla4 (peptide)	9.30
